We go through one molecule from patent US20240207382A1 (HEALTH RESEARCH, published 2024).

The target of this experiment is T1, mouse Factor H (FH from mouse, MyBiosource) (mouse, UniProt P06909 19-1234).
T1 construct: Bought protein, coated on microtiter wells; also called mouse FH
The experiment is described as follows: quantitative ELISA, mouse FH coated, GST-tagged protein (0.03125-2 µM) detected with anti-GST. In general terms: An ELISA detects its analyte on a solid surface through an enzyme-linked reagent.

T1 sequence (P06909 19-1234): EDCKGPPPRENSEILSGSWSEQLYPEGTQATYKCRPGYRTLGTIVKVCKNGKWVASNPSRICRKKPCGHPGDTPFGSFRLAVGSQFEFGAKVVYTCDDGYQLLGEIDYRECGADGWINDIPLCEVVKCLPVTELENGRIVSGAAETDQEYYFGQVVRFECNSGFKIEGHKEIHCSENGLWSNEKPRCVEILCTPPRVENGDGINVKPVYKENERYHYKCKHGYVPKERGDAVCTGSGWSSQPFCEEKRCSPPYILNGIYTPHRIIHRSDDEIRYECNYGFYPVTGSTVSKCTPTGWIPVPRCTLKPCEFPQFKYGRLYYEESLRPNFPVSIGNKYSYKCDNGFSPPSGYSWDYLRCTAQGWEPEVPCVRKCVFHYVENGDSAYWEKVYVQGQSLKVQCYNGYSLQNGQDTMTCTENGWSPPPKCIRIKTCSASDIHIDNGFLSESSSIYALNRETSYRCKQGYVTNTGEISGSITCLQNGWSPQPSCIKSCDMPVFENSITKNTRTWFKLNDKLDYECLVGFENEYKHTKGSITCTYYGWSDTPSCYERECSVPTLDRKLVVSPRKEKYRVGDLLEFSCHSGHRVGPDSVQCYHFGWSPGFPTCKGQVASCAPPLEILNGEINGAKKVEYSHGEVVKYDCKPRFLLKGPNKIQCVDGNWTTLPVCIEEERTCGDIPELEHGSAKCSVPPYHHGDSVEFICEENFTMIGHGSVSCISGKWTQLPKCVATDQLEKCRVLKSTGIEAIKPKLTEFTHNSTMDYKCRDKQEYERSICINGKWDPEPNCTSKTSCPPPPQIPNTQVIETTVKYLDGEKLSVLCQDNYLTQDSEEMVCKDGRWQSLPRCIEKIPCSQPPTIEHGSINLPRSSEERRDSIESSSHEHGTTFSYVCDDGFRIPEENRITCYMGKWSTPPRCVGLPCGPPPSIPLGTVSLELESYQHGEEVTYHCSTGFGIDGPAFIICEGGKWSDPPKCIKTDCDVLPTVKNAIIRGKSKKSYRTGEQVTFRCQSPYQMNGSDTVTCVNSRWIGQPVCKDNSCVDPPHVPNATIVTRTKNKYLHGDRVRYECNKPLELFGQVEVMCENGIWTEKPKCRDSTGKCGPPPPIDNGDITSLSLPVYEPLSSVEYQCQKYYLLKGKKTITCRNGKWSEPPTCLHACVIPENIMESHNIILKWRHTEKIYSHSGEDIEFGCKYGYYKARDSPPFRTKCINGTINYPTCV

B1: GST tagged CspZ (residue 20 to 236 of CspZ from B. burgdorferi strain B31) (other)
chain: DVSRLNQRNINELKIFVEKAKYYSIKLDAIYNECTGAYNDIMTYSEGTFSDQSKVNQAISIFKKDNKIVNKFKELEKIIEEYKPMFLSKLIDDFAIELDQAVDNDVSNARHVADSYKKLRKSVVLAYIESFDVISSKFVDSKFVEASKKFVNKAKEFVEENDLIALECIVKTIGDMVNDREINSRSRYNNFYKKEADFLGAAVELEGAYKAIKQTLL
notes: also called wild type CspZ; CRASP-2; not shown: glutathione-S-transferase (GST) tag encoded by plasmid pGEX-6P1
Turning to B1, the binding result is on record as “binds”.
